# B1: Pistol ribozyme (parent)
# chain: GGGUCGUUGUUCCAUAAUCGCGUGGAUAUGGCACGCAAGUUUCUACCGGGCACCGUAAAUGUCCGACUGGAGCCGUUCGGGCGGCUAUAAACAGACCUCAGGCCCGAAGCGUGGCGGCACCUGCCGCCGGUGGUAAAAAAGAUCGGAAGAGCACACGUCU
# Variants of: B1
# Assay: aptazyme ON/OFF ratio, guanine; higher = stronger switching; co-transcriptional cleavage with and without guanine
row,Variant,aptazyme ON/OFF ratio
1,U7C U8C G9C C12G C13G,1.07
2,U7G U8C G9A U10G U11C C12A C13A,1.15
3,U7G U8G G9A U10G U11A C12U C13A,1.15
4,U7A G9U U10A C12A C13A,1.1
5,U7G G9A U10A U11C C12A C13A,1.13
6,G9C U10G U11G C12A C13U,1.11
7,U7C U8A G9C U10A C12G C13A,1.11
8,U7G U8A G9A U10A U11C C12A C13A,1.15
9,U7G U8C G9U U10G C12G C13U,1.23
10,U7C G9C U11G C13G,1.03
11,G9A U10G U11A C12U C13A,1.21
12,U7C U10C C12G C13G,1.18
13,U7A U8G G9C U10G U11C C12A,1.47
14,U7A U10C U11A,1.2
15,U7G U8A G9U U11A C12G,1.14
16,U8C G9C U10G U11A C13U,1.06
17,U7A U8C G9A U10G C12G C13A,1.27
18,U7G U8G U10G U11A C12U C13U,1.17
19,U7A U8G U11G C12A C13A,1.18
20,U7C U8A G9U U10C C12U C13G,1.12
21,U8G G9C U10A U11C C12U C13A,1.09
22,U8A U10A U11G C13G,1.14
23,U7A U8A G9C U10G U11A C12G C13U,1.13
24,U7A G9A U10A U11A C12G C13U,1.05

row,Variant,aptazyme ON/OFF ratio
1,U7C U8G U10G U11A C12A C13G,1.13
2,U7A U8A U10C C12G C13U,1.26
3,U7A U8G G9A U10C U11G C12U C13U,1.23
4,U7A U11A C12U C13U,1.31
5,U7G G9C U10A U11C C12U C13A,1.33
6,U7A G9A U10C U11G C12U C13A,1.15
7,U7G U8A G9A U10A U11A C12G C13A,1.1
8,U8C U10C U11C C13U,1.08
9,U7C U8G G9U U10G U11A C13U,1.12
10,U7A U8C G9C U10G U11A C12A,1.26
11,U7A U8C G9U U11A C12G,1.23
12,U7A G9U U10G U11C C12A C13G,1.12
13,U7A U8C G9U C12U C13A,1.22
14,U7A U8C U10C U11G C12U C13U,1.28
15,U7C G9A U10A C12A,1.15
16,U7G U8A G9C U10A U11C C13U,1.04
17,U7A U8G G9C U11A C13A,1.44
18,U7A U8C G9C U10G U11C C12G,1.21
19,U7C G9U U10G U11G C12U C13G,1.13
20,U7C U8A G9A U10C C13U,1.51
21,U7G U8G G9A U11A C13A,1.35
22,U7C U8G G9U U10A U11C C12A C13G,1.16
23,U8A G9C U11G C12A C13G,1.25
24,U7A U8C G9U U10C U11G,1.22

row,Variant,aptazyme ON/OFF ratio
1,U7A U8A U10G U11C C12A C13U,1.34
2,U7A U8C G9C U10G U11A C12G C13A,1.02
3,U7A U8G G9C U10G U11A C12G C13A,1.33
4,U7C U8A G9A U10A C12A C13A,1.19
5,C12U C13G,1.29
6,U7C G9U U11G C12U,1.47
7,U7A U8A G9C U10G U11G C13A,1.28
8,U8C U10C U11C C12U,1.44
9,U7A U8G G9A U10C U11G C13G,1.3
10,U7A U8C G9A U10G U11C C13U,1.05
11,U7G U8G G9U U10G U11G C12G C13U,1.14
12,U7A G9U C12G C13A,1.2
13,U7G U8A G9C U10C U11G C12G,1.03
14,U7A U8C G9U C12A C13G,1.19
15,U8C G9C U10C U11C,0.964
16,U7C U8C G9A U10G,1.56
17,U7G U10A U11C C12A C13U,1.18
18,U7C G9U U10C C12G C13G,1.06
19,U8C U10G U11A C12U C13G,1.12
20,U8A G9U U11A C12U C13U,1.08
21,U8G G9A U10A U11A,1.6
22,U7C U8A G9C U10C U11G C12G,1.09
23,U7C U8G G9C U10C C12A C13U,1.06
24,U7G U8A G9C U10C U11G C12U C13A,1.05

row,Variant,aptazyme ON/OFF ratio
1,U8G G9U U10C U11A C12G,1.12
2,U7A U8C G9C U10A C12G,1.21
3,U8A U10A U11A C12A C13U,1.11
4,U7A U8A G9A U11A C12A C13A,1.17
5,U7C U8C G9U U11G C13U,1.16
6,U8A U10C U11A C12A C13A,1.21
7,U7A G9U U10A U11G C12G C13A,1.16
8,U7A G9A U11G C12G C13G,1.24
9,U7G U8A G9A U10C U11G C12A C13G,1.07
10,U7A U8C G9U U10G,3.16
11,U7C U8C G9C U10G C12G C13A,1.05
12,U7G G9U U10G U11C C12A C13G,1.23
13,U7A U8A C12A C13A,1.22
14,U7G U8C U10G C12U C13G,1.22
15,G9C U10A U11A C12G C13G,1.27
16,U8A U10A U11A C12G C13U,1.13
17,U7G G9U U10G U11G C12U,1.29
18,U8A G9U U10A C12A,1.34
19,U8C G9U U10G C12A C13G,1.13
20,U8G G9U U10G,1.07
21,U7C U8A G9U U10A U11C C12U C13G,1.13
22,U7C U8A U10A U11C C12G C13G,1.22
23,U7A U8A G9A U10G C13G,1.46
24,U7G G9A U10C C13U,1.44

row,Variant,aptazyme ON/OFF ratio
1,U7C U8C G9U U10G C13U,1.39
2,U7G U8A U10A U11G C12A C13G,1.19
3,U7C U8A G9C U11G C13U,1.15
4,G9U U10A U11C C13A,1.53
5,U7G U8C G9A U10G C12A,1.18
6,U7G U8C G9A U10G C12G,1.13
7,G9C U10C U11C C13A,1.02
8,U7C U8C U10C C12U,1.36
9,U8G G9C U10G U11A C13G,1.03
10,U8G G9C U10G U11A C13U,1.06
11,U7G U8C G9U U10A U11G C13A,1.14
12,U7C U8C G9U U10C U11C C13G,1.1
13,U7C U8G U10A C12U C13U,1.33
14,G9A U10G C12G C13G,1.21
15,U7A G9U U10C U11A C12U C13G,1.2
16,U7G U8A G9C U11C C12U C13A,1.06
17,U7A U8A G9C U10C C12U,1.07
18,U7A G9C C12G C13A,1.05
19,U7C U8C G9A U10C U11A C12G C13A,1.26
20,U7C U8C G9A U10C U11A C12G C13U,1.13
21,U7A U8C G9A U10C C13A,1.09
22,U7C U8G G9U U10C U11A C13U,1.35
23,U7C U8A G9U U11G C12A C13U,1.2
24,U8C G9C U10A C12A C13A,1.09

row,Variant,aptazyme ON/OFF ratio
1,U7A U8G G9C U10G C12A,1.27
2,U7G U8A G9U U10A U11C C12A,1.07
3,U7A U8G G9U U10G U11G C12G C13G,1.24
4,U7G U8G G9A C12U C13G,1.22
5,U7A U8A G9C U10A C12G,1.25
6,G9C U10A C13G,1.08
7,U7A U8A G9C U10A U11A C12U,1.19
8,U8A G9A U11G C13G,1.09
9,U8A G9C U10G U11A C12U C13U,1.08
10,U10G C12U C13U,1.15
11,U8A G9U U10A C12U C13U,1.13
12,U8C G9A U10A U11C C12A,1.25
13,U7G G9C U10C U11G C12U,1.57
14,U7C U8G G9A U10G C13U,1.54
15,U7G U8C G9A U11A C13A,1.14
16,U7A G9A U10G U11C C13G,1.11
17,U7G U8G G9A U10C U11C C12A,1.22
18,U7G U8A U11A C12A C13U,1.39
19,U7G U8C U10C C13G,1.07
20,U7G U8A G9A U10A C12G,1.19
21,U7G U8C U10G U11C C12A C13G,1.17
22,U7C U8C G9C U10G U11G C12G C13A,1.11
23,U7G U8A U10C C12G C13G,1.17
24,U8A G9A U10G U11A C12A,1.17

row,Variant,aptazyme ON/OFF ratio
1,U7C U8A G9A C12U,1.3
2,U7A U8G G9U C12A C13A,1.28
3,U7A G9C U10C U11G C12A C13A,1.04
4,U7C U8G U10C U11A C13U,3.36
5,U7C U8G U10C U11A C13G,1.16
6,U7G G9C U10A U11A C12U C13G,1.25
7,U8A G9A U11A C13A,1.26
8,U7G U8A G9A U10C U11A C12G C13G,1.07
9,U7C G9A U11G C12U C13A,1.35
10,U8A U10A U11G C12A,1.12
11,U7G U8A G9A U11A C12A,1.27
12,U10A U11G C12U C13G,1.24
13,U7A U8A U11A C12U C13G,1.28
14,G9U U10A U11A C12U C13A,1.09
15,U7G U8A G9A U10A C12G C13G,1.09
16,U8G G9A U10C U11A C12G C13G,1.07
17,U7C U8G G9A U10C U11A C12A C13A,1.11
18,U7C G9A U10C U11C C12G,1.2
19,U7G U8A G9U U10C U11C C12G,1.08
20,U7A G9A U10G U11A C12G,1.12
21,U7G U8C U10A U11C C12G,1.16
22,U7A U8G U10G U11G C13A,1.39
23,U7G U8A G9A U10G U11A C12A C13U,1.07
